For this assay, the target named is dynein (Saccharomyces cerevisiae, UniProt P36022).

Bounds are passed on as bounds.

Chain of dynein (P36022 whole entry): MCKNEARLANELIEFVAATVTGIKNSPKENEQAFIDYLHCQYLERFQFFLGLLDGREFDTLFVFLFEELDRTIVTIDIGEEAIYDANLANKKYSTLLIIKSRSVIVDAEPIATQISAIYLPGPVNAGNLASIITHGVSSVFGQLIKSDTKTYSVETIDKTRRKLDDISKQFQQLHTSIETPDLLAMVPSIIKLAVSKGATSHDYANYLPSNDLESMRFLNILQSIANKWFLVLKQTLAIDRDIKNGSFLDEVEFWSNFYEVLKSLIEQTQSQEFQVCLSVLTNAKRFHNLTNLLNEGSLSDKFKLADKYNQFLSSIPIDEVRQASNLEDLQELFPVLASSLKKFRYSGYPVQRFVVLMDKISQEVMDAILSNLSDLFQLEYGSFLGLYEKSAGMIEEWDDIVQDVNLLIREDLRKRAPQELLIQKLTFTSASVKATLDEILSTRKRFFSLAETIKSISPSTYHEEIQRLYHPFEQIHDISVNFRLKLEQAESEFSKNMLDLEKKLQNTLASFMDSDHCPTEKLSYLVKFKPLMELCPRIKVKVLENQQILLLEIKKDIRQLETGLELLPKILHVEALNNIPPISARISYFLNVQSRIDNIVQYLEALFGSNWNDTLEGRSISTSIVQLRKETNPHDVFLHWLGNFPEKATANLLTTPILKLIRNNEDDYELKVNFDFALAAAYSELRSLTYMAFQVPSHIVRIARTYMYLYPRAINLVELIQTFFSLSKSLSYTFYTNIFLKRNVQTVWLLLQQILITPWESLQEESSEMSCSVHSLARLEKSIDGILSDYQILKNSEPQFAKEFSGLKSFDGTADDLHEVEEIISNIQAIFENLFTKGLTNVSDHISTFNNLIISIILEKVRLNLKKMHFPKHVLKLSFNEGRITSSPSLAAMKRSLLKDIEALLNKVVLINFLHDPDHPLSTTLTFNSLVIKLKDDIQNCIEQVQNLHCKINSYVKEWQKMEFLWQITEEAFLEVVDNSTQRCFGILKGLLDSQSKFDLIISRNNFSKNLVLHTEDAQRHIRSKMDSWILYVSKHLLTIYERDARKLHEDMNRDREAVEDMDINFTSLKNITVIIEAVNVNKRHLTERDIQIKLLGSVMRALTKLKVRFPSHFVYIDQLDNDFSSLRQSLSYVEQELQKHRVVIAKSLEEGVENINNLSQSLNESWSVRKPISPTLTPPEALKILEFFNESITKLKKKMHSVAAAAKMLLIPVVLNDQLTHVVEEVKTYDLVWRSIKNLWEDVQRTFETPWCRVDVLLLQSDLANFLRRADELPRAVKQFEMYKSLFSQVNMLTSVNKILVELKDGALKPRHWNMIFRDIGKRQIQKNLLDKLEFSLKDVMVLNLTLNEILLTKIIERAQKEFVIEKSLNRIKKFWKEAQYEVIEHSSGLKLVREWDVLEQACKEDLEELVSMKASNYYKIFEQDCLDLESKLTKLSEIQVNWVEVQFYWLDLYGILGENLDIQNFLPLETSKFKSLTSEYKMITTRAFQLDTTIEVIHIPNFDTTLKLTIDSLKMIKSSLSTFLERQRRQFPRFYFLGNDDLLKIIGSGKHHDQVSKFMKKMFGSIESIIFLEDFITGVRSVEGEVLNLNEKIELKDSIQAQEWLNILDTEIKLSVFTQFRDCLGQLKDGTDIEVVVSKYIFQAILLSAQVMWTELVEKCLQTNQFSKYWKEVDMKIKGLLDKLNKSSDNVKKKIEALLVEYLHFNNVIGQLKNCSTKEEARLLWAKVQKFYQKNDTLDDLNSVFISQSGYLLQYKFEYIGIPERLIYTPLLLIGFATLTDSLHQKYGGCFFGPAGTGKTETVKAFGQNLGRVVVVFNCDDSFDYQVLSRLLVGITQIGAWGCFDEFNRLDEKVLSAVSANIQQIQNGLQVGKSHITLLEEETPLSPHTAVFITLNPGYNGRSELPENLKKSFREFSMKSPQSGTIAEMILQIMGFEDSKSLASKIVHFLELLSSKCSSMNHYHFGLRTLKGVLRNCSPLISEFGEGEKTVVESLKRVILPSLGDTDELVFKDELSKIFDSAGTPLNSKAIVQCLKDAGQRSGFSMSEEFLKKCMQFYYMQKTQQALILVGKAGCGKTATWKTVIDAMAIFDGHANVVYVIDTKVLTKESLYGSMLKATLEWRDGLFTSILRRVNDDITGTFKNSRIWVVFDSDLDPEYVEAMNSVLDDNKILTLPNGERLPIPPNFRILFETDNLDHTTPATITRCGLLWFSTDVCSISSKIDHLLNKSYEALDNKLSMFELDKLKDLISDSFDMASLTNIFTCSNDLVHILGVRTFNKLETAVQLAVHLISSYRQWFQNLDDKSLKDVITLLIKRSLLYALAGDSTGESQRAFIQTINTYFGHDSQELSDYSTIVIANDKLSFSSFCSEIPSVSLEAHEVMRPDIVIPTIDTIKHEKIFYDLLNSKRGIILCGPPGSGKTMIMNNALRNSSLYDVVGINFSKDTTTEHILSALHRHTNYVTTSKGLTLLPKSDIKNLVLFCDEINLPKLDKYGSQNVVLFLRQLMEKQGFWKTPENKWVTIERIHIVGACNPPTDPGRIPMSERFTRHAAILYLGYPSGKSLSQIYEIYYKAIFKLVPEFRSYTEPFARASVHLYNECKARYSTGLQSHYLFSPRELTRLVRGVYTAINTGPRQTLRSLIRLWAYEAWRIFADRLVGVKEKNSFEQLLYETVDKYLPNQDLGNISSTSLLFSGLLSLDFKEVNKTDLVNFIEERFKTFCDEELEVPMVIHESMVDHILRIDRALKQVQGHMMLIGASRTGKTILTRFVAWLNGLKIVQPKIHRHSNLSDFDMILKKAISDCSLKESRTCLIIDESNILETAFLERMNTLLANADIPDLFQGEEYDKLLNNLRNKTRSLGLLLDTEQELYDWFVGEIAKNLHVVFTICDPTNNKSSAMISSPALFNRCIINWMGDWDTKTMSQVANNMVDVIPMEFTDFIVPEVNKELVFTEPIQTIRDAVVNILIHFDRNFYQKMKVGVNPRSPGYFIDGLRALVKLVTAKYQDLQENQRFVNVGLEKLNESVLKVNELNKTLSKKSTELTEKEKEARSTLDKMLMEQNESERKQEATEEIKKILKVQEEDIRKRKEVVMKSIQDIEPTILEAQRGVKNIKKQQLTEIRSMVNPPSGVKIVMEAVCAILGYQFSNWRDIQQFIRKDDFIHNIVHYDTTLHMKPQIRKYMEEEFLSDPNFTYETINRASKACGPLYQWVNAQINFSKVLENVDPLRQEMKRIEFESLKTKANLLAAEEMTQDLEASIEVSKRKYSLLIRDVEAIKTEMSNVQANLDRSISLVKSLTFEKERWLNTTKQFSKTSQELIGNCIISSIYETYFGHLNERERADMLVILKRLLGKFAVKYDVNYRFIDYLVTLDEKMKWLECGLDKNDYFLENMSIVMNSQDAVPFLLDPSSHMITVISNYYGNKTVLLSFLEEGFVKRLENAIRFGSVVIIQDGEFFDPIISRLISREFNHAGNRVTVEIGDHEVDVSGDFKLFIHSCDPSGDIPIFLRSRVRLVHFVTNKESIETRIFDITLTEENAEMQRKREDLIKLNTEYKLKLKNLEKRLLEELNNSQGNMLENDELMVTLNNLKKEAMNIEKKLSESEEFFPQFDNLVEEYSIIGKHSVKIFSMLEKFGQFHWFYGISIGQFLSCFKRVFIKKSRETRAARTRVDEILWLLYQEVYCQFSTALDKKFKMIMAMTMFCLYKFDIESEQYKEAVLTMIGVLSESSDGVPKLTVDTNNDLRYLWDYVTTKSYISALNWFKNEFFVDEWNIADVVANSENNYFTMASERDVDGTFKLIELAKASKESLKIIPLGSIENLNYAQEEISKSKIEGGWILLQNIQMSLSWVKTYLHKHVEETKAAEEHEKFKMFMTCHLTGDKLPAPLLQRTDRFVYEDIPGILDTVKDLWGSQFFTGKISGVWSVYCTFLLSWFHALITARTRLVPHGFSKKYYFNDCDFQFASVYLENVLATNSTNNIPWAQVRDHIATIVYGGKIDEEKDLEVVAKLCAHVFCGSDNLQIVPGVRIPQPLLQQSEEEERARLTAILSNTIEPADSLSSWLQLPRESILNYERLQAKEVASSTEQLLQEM

B1: She1 (protein)
chain: MNDKLQEEHNEKDTTSQINGFTPPHMSIDFHSNNNSNIIETIGVSKRLGNSVLSELDSRASSKFEFLKDQSEQQYNGDKNNEPKSGSYNINEFFQAKHDSQFGQMESLDTHYTLLHTPKRKSQHAIPQDRSDSMKRSRPSRSIPYTTPVVNDITRRIRRLKLRNSLVNGNDIVARARSMQANSNINSIKNTPLSKPKPFMHKPNFLMPTTNSLNKINSAHRNTSSSSTASSIPRSKVHRSISIRDLHAKTKPVERTPVAQGTNSQLKNSVSVFDRLYKQTTFSRSTSMNNLSSGTSAKSKEHTNVKTRLVKSKTSGSLSSNLKQSTATGTKSDRPIWR
B1 came in with a dissociation constant (Kd) below 0.2 nM.

For the origin of these results see publication PMC5732302 (2017).
